The source of these data is patent US20230035798A1 (CAPELLA BIOSCIENCE, published 2023).

Test [1] concerns the target T1, recombinant human soluble LIGHT, amino acids 74-240 (R&D Systems 664-LI-025) (human, UniProt O43557 74-240).
T1 chain: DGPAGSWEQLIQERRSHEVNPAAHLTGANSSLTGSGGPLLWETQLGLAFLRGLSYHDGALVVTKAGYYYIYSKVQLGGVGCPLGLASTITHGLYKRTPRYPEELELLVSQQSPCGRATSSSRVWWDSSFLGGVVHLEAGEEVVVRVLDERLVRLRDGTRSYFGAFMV
As to the kind of experiment: cell-based or functional assay.

Test [2] concerns the target membrane LIGHT without residues 81-84 (EL4-NC-LIGHT cells) (human, UniProt O43557 1-240). Description: cell-based or functional assay.
Another test deals with T2, membrane LIGHT G188A (human, UniProt O43557 1-240).
T2 construct: full-length LIGHT with the substitution on HEK293FF cells
T2 chain: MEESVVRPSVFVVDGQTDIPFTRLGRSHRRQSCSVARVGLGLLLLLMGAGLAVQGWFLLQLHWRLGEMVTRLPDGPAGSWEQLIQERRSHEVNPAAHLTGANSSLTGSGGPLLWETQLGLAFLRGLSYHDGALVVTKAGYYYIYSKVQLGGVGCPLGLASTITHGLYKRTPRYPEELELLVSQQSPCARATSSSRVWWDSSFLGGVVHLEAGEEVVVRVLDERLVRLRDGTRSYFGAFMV
As to the kind of experiment: flow cytometry, transfected HEK293FF, mAb at EC50. The procedure:
(§1) The day of transfection the cells were seeded in a 24-well plate at 0.6×10⁶ cells/well. Lipofectamine 2000 (ThermoFisher scientific), 3 μl, was mixed with 50 μl OptiMEM medium (GIBCO) and then added to 50 μl Opti-MEM medium containing 3 ug plasmid DNA and incubated for 20 min at RT to form DNA-Lipofectamine 2000 complexes which were then added to the HEK293FF cells and incubated at 37° C., 5% CO₂ for 24 hours. For each construct, in duplicate, 0.60×10⁶ cells/well were used in a 96 well round bottom plate. Cells were centrifuged for 3 minutes at 300×g at 4° C., the supernatant discarded and the cells washed with 150 μl FACS buffer (0.5% FBS in phosphate buffered saline). This process was repeated 3 times. […] The wells were washed 3 times as above and 50 μl/well of goat anti-human IgG FITC (1:1500 dilution in FACS buffer, SIGMA F9512-2ML) or goat anti-mouse APC (1/500 dilution in FACS buffer, BDBioscience 550826), as appropriate, was added to the wells and incubated for 30 min at 4° C. protected from the light, with shaking. The cells were then washed as above, resuspended in 100 μl of FACS buffer and binding of the antibodies to the constructs was measured using flow cytometry and a total of 10,000 cells were acquired for each sample. Controls of buffer and secondary antibody only as well as HEK293FF non transfected cells were also used.
(In general: In flow cytometry, cells or beads pass a laser one at a time.)

The next test has as its target T3, membrane LIGHT S192A (human, UniProt O43557 1-240).
T3 chain: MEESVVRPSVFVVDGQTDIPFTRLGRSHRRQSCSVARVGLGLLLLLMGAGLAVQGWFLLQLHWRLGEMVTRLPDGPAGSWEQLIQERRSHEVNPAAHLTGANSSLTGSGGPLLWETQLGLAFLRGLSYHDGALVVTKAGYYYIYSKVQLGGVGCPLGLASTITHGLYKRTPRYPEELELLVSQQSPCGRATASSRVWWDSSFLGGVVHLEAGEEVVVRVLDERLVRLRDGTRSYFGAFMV
Description: flow cytometry, transfected HEK293FF, mAb at EC50. The procedure:
as §1

In a further test the target is T4, membrane LIGHT S194A (human, UniProt O43557 1-240).
T4 chain: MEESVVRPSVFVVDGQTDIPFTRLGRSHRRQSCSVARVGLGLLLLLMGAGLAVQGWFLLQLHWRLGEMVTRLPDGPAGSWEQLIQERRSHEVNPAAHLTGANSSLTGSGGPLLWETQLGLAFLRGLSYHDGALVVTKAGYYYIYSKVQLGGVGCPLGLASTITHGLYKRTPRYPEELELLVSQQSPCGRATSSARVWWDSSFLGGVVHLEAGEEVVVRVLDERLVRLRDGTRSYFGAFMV
Description: flow cytometry, transfected HEK293FF, mAb at EC50. On the procedure:
as §1

Test [3] addresses T5, human LIGHT (TNFSF14), full length, membrane-bound (214E allele) (human, UniProt O43557 1-240).
T5 construct: also called membrane LIGHT; human membrane LIGHT
As to the kind of experiment: DcR3-His (1 nM) competition, EL4-LIGHT, flow cytometry; 3.7 nM. On the procedure: (§2) EL4-LIGHT cells (0.25×10⁶) were preincubated with anti-membrane LIGHT mAbs (0-300 nM) for 15 min at 4° C. followed by incubation with DcR3-His tagged (1 nM, Creative BioMart; ref: TNFRSF6B-552H, lot: 962512) for 30 min at 4° C. The samples were then incubated with mouse anti-histag antibody (diluted 1:500, Biolegend, cat. no. 652502) for 30 minutes at 4° C., followed by incubation with anti-mouse APC (dil 1:500, BDBiosciences, cat. no. 550826) for 30 minutes at 4° C. The tubes were washed three times after each of the detection antibody stages and flow cytometry analysis was performed. Specific mean fluorescence intensity (MFI) obtained from the binding of DcR3-His to LIGHT on EL4 cells were used to determine the levels of competition binding.
(§3) In humans, LIGHT is neutralized by DcR3, a unique soluble member of the TNFR superfamily, which tightly binds LIGHT (both soluble and membrane forms) and inhibits its interactions with HVEM and LTβR. A major binding determinant for DcR3 neutralization is the region T170-E178 on LIGHT (Liu et al. Structure 2014: 9; 1252-1262). […] In contrast the anti-LIGHT mAb F19, (from EP2292663) which binds both soluble LIGHT and membrane LIGHT equally well completely displaces DcR3 from binding to membrane LIGHT highlighting a surprising an important functional difference between the anti-membrane LIGHT mAbs of this invention and other neutralizing anti-LIGHT mAbs that have been raised against or screened against soluble LIGHT.

Test [4] addresses T5, human LIGHT (TNFSF14), full length, …. As to the kind of experiment: DcR3-His (1 nM) competition, EL4-LIGHT, flow cytometry; 1.23 nM. On the procedure: as §2, §3
For test [5] the target is unchanged. Description: DcR3-His (1 nM) competition, EL4-LIGHT, flow cytometry; 33.3 nM. The procedure:
as §2, §3

T5 sequence (O43557 whole entry K214E): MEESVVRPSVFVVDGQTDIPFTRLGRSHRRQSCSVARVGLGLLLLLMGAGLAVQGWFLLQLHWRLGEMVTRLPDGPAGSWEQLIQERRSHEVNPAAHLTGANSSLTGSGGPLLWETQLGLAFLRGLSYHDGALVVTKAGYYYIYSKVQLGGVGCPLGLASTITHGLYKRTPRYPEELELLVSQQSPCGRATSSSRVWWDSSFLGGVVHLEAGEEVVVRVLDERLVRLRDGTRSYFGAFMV
membrane LIGHT without residues 81-84 (EL4-NC-LIGHT cells), sequence (O43557 other isoform, or with tags, fused parts or gaps): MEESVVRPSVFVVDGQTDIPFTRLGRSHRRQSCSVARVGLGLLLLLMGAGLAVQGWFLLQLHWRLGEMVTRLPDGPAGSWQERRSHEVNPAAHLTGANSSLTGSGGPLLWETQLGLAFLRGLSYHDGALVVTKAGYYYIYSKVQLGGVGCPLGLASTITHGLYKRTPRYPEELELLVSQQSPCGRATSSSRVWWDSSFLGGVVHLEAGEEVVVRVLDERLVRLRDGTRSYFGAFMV

B1: 2E08 (antibody, human IgG4, V domains shown)
VH: QVQMKESGAELVRPGVSVKISCKGSGYTFTDYAIHWVKQSHAKTLEWIGVISTYYGDASYNQKFKGKATMTVDKSSSTAYMELARLTSDDSAIYYCARSRGEYGNYDAMDYWGQGTSVTVSS
VL: DIVLTQSPASLAVSLGQRATISCKASQSVDYDGDSYMNWYQQKPGQPPKLLIYAASNLESGIPARFSGSGSGTDFTLNIHPVEEEDAATYYCQQSNEDPLTFGAGTKLELK
notes: chimeric human IgG4 (S-to-P, L-to-E at 248), human CL; also called Parental 2E08
Regarding B1, the “IC50, nM soluble LIGHT (5 ng/ml; IL-8 release from HT-29 cells)” value (“IC50, nM soluble LIGHT” for short) in test [1] was more than 100 nM. Moreover, the “IC50, nM membrane LIGHT (IL-8 release from HT-29 cells)” value (“IC50, nM membrane LIGHT” for short) in test [2] turned out to be 1.8 nM. In addition, the figures for the “binding, % of WT” value with membrane LIGHT G188A, with membrane LIGHT S192A and with membrane LIGHT S194A were 44%, 122% and 3%, respectively. Also, the entries for the “DcR3-His binding, % of irrelevant mAb” value in test [3], in test [4] and in test [5] were 66.1%, 118% and 78.4%, respectively.

B2: 2B11 (antibody, human IgG4, V domains shown)
VH: EVQLVESGAELVRPGVSVKISCKGSGYTFTDYAIHWVKQSHAKSLEWIGVISTYYGDASYNQKFKGKATMTVDKSSSTAYMELARLTSEDSAIYYCARSRGEYGNYDAMDYWGQGTSVTVSS
VL: DIVLTQSPASLAVSLGQRATISCRASESVDSYGNSFMHWYQQKPGQPPKLLIYRASNLESGIPARFSGSGSRTDFTLTINPVEADDVATYYCQQSNEDPYTFGGGTKLEIK
notes: chimeric human IgG4 (S-to-P, L-to-E at 248), human CL; also called Parental 2B11
As for B2, in test [1], the “IC50, nM soluble LIGHT” value worked out at 47 nM. In test [2], the “IC50, nM membrane LIGHT” value was determined as 0.55 nM. Further, the “binding, % of WT” value with membrane LIGHT G188A is 3%; in the test with membrane LIGHT S192A it was 96%; in the test with membrane LIGHT S194A, 0%. The entries for the “DcR3-His binding, % of irrelevant mAb” value in test [3], in test [4] and in test [5] were 78.6%, 115% and 79.8%, respectively.

B3: 3A07 (antibody, human IgG4, V domains shown)
VH: QVQLQQSGAELVRPGAPVTLSCKASDYTFTDSEIHWVKQTPVHGLEWIGEIDPETGGTAYNQKFKGKATLTADKSSSTAYMELRSLTSEDSAVYYCSRETDYFFDYWGQGTTLTVSS
VL: ENVLTQSPAIMSASPGEKVTMTCSASSSVSYMYWYQQRPGSSPRLLIYDTSNLASGVPVRFSGSGSGTSYSLTISRMEAEDAATYYCQQWSSYPLTFGSGTKLEIK
notes: chimeric human IgG4 (S-to-P, L-to-E at 248), human CL; also called Parental 3A07
Consider B3, for which the “IC50, nM soluble LIGHT” value in test [1] was more than 100 nM. In addition, the “IC50, nM membrane LIGHT” value in test [2] turned out to be 2 nM. In addition, the “binding, % of WT” value with membrane LIGHT G188A was 5%; with membrane LIGHT S192A, 41%; with membrane LIGHT S194A it was 1%. Besides, the “DcR3-His binding, % of irrelevant mAb” value in test [3] was 89.6%; in test [4] it was 90.6%; in test [5] it was 67.5%.

B4: 3B04 (antibody, human IgG4, V domains shown)
VH: QVQLQQPGAELVRPGASVTLSCKASGYTFTDYEMHWVKQTPVHGLEWIGEIDPETGDTAYSQKFKGKATLTADKSSSTAYMEFRSLTSEDSAVYYCSRETDYFFDYWGQGTTLTVSS
VL: DIQMTQTPASLSASVGETVTITCGASENIYGALNWYQRKQGKSPQLLIYGATNLADGMSSRFSGSGSGRQYSLKISSLHPDDFATYYCQNVLTTPWTFGGGTKLEIKR
notes: chimeric: mouse variable domains on human IgG4 HC (S-to-P and L-to-E at 248) and human CL; also called Parental 3B04; 3B04 chimeric
For B4, in test [1], the “IC50, nM soluble LIGHT” value was 6.5 nM. Further, the “IC50, nM membrane LIGHT” value in test [2] was determined as 0.15 nM. Besides, the “binding, % of WT” value with membrane LIGHT G188A came out at 6%; with membrane LIGHT S192A, 88%; in the test with membrane LIGHT S194A it was 0%. In addition, the “DcR3-His binding, % of irrelevant mAb” value in test [3] was determined as 78.5%; in test [4], 75.1%; in test [5], 85.1%.

B5: 3C10 (antibody, human IgG4, V domains shown)
VH: EVQLQQSGAELVRPGASVTLSCKASDYTFTDSEIHWVKQTPVHGLEWIGEIDPETGGTAYNQKFKGKATLTADKSSSTAYMELRSLTSEDSAVYYCSRETDYFFDYWGQGTTLTVSS
VL: DVVMTQTPAIMSASPGEKVTMTCSASSSVSYMYWYQQKPGSSPRLLIYDTSNLASGVPVRFSGSGSGTSYSLTISRMEAEDAATYYCQQWSSYPLTFGAGTKLELK
notes: chimeric human IgG4 (S-to-P, L-to-E at 248), human CL; also called Parental 3C10
B5: in test [1], the “IC50, nM soluble LIGHT” value was more than 100 nM. Besides, in test [2], the “IC50, nM membrane LIGHT” value turned out to be 1.9 nM. Moreover, the “binding, % of WT” value with membrane LIGHT G188A was found to be 3%; with membrane LIGHT S192A it was 35%; with membrane LIGHT S194A, 0%. In addition, the results for the “DcR3-His binding, % of irrelevant mAb” value in test [3], in test [4] and in test [5] were 86.9%, 95.5% and 81.9%, respectively.

B6: 3E09 (antibody, V domains shown)
VH: EVQLVESGGGLVKPGGSLKLSCEASGFTFSDYYMYWVRQTPEKRLEWVAAIGDGGIYTYYADTVKGRFTISRDNAKNILYLQMSSLKSNDTAMYYCARGTGDGFAYWGQGTLVTVS
VL: DIVLTQSPASLAVSLGQRATISCRASESVDSYGNSFMHWYQQKPGQPPKLLIYLASNLESGVPARFSGSGSRTDFTLTIDPVEADDAATYYCQQNNEDPYTFGGGTKLEIK
notes: chimeric human IgG4 (S-to-P, L-to-E at 248), human CL; also called Parental 3E09
For B6, the “binding, % of WT” value came out at 35% in the test with membrane LIGHT G188A, 50% in the test with membrane LIGHT S192A and 1% with membrane LIGHT S194A. For the same molecule, the “DcR3-His binding, % of irrelevant mAb” value in test [3] worked out at 80.4%; in test [4], 66.9%; in test [5], 70.5%.
